Test results published in PMC10397247.
Like-named read-outs stand apart in the source and are kept apart here.

Tests used:
O7-bN = molecular target: T1, O7-bN; assay: two-hybrid library CCNG1;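 note: natural log of median RNA to DNA barcode read ratio; higher means stronger binding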
T1 chain: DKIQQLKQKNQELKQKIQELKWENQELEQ

O9-bN = molecular target: T2, O9-bN; assay: two-hybrid library CCNG1;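 note: natural log of median RNA to DNA barcode read ratio; higher means stronger binding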
T2 chain: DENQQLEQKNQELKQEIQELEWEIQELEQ

O8-bN = molecular target: T3, O8-bN; assay: two-hybrid library CCNG1;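 note: natural log of median RNA to DNA barcode read ratio; higher means stronger binding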
T3 chain: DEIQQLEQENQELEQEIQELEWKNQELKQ

4H2774-AA = molecular target: T4, 4H2774-AA; assay: two-hybrid library CCmax; settings: mean of both orientations;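 note: natural log of median RNA to DNA barcode read ratio; higher means stronger binding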
T4 chain: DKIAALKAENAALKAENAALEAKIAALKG

4H2947-AA = molecular target: T5, 4H2947-AA; assay: two-hybrid library CCmax; settings: mean of both orientations;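 note: natural log of median RNA to DNA barcode read ratio; higher means stronger binding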
T5 chain: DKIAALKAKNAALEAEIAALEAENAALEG

4H2760-AA = molecular target: T6, 4H2760-AA; assay: two-hybrid library CCmax;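 note: natural log of median RNA to DNA barcode read ratio; higher means stronger binding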
T6 chain: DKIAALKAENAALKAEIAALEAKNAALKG

4H3094-AA = molecular target: T7, 4H3094-AA; assay: two-hybrid library CCmax; settings: mean of both orientations
T7 chain: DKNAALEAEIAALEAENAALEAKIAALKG

4H3049-AA = molecular target: T8, 4H3049-AA; assay: two-hybrid library CCmax; settings: mean of both orientations
T8 chain: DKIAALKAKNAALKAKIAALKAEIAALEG

4H446-AA = molecular target: T9, 4H446-AA; assay: two-hybrid library CCmax; settings: mean of both orientations
T9 chain: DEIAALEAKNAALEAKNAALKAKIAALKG

4H3619-AA = molecular target: T10, 4H3619-AA; assay: two-hybrid library CCmax; settings: mean of both orientations
T10 chain: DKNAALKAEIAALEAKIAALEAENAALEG

4H432-AA = molecular target: T11, 4H432-AA; assay: two-hybrid library CCmax; settings: mean of both orientations
T11 chain: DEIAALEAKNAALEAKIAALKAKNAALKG

4H3449-AA = molecular target: T12, 4H3449-AA; assay: two-hybrid library CCmax; settings: mean of both orientations
T12 chain: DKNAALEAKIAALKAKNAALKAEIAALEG

4H380-AA = molecular target: T13, 4H380-AA; assay: two-hybrid library CCmax; settings: mean of both orientations
T13 chain: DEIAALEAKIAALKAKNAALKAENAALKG

4H2961-AA = molecular target: T14, 4H2961-AA; assay: two-hybrid library CCmax; settings: mean of both orientations
T14 chain: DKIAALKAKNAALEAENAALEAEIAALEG

4H3915-AA = molecular target: T15, 4H3915-AA; assay: two-hybrid library CCmax; settings: mean of both orientations
T15 chain: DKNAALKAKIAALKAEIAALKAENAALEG

4H2903-AA = molecular target: T16, 4H2903-AA; assay: two-hybrid library CCmax; settings: mean of both orientations
T16 chain: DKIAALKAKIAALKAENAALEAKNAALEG

4H3629-AA = molecular target: T17, 4H3629-AA; assay: two-hybrid library CCmax; settings: mean of both orientations
T17 chain: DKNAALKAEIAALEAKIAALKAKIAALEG

4H63-AA = molecular target: T18, 4H63-AA; assay: two-hybrid library CCmax; settings: mean of both orientations
T18 chain: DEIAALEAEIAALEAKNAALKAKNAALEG

4H341-AA = molecular target: T19, 4H341-AA; assay: two-hybrid library CCmax; settings: mean of both orientations
T19 chain: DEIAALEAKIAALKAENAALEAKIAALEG

4H3777-AA = molecular target: T20, 4H3777-AA; assay: two-hybrid library CCmax; settings: mean of both orientations
T20 chain: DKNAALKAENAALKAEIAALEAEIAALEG

4H3974-AA = molecular target: T21, 4H3974-AA; assay: two-hybrid library CCmax; settings: mean of both orientations
T21 chain: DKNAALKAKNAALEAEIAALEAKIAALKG

4H324-AA = molecular target: T22, 4H324-AA; assay: two-hybrid library CCmax; settings: mean of both orientations
T22 chain: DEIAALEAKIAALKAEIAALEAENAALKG

O8-bH = molecular target: T23, O8-bH; assay: two-hybrid library CCNG1
T23 chain: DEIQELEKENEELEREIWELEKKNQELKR

O9-bH = molecular target: T24, O9-bH; assay: two-hybrid library CCNG1
T24 chain: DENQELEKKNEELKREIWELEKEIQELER

O7-bH = molecular target: T25, O7-bH; assay: two-hybrid library CCNG1
T25 chain: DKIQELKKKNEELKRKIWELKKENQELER

4H3057-bN = molecular target: T26, 4H3057-bN; assay: two-hybrid library CCNG1
T26 chain: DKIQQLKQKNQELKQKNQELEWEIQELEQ

4H477-bN = molecular target: T27, 4H477-bN; assay: two-hybrid library CCNG1
T27 chain: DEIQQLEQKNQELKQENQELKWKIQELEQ

4H319-bN = molecular target: T28, 4H319-bN; assay: two-hybrid library CCNG1
T28 chain: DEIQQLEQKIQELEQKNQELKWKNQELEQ

4H40-bN = molecular target: T29, 4H40-bN; assay: two-hybrid library CCNG1
T29 chain: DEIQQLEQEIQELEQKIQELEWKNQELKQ

4H741-bN = molecular target: T30, 4H741-bN; assay: two-hybrid library CCNG1
T30 chain: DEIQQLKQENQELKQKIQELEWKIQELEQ

4H348-bN = molecular target: T31, 4H348-bN; assay: two-hybrid library CCNG1
T31 chain: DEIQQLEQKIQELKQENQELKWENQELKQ

4H3277-bN = molecular target: T32, 4H3277-bN; assay: two-hybrid library CCNG1
T32 chain: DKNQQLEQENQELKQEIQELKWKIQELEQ

4H492-bN = molecular target: T33, 4H492-bN; assay: two-hybrid library CCNG1
T33 chain: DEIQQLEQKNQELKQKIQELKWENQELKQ

APC9096-AA = molecular target: T34, APC9096-AA; assay: two-hybrid library CCmax; settings: mean of both orientations
T34 chain: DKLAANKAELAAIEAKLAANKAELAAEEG

APC4436-AA = molecular target: T35, APC4436-AA; assay: two-hybrid library CCmax; settings: mean of both orientations
T35 chain: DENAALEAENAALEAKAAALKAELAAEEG

APC9319-AA = molecular target: T36, APC9319-AA; assay: two-hybrid library CCmax; settings: mean of both orientations
T36 chain: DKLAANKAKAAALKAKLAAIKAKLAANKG

APC8191-AA = molecular target: T37, APC8191-AA; assay: two-hybrid library CCmax; settings: mean of both orientations
T37 chain: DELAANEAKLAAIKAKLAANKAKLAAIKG

APC7099-AA = molecular target: T38, APC7099-AA; assay: two-hybrid library CCmax; settings: mean of both orientations
T38 chain: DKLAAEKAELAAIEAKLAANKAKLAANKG

APC5383-AA = molecular target: T39, APC5383-AA; assay: two-hybrid library CCmax; settings: mean of both orientations
T39 chain: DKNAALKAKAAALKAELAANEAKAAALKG

APC6108-AA = molecular target: T40, APC6108-AA; assay: two-hybrid library CCmax; settings: mean of both orientations
T40 chain: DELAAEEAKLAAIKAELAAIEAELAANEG

APC4011-AA = molecular target: T41, APC4011-AA; assay: two-hybrid library CCmax; settings: mean of both orientations
T41 chain: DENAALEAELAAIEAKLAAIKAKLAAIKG

APC4264-AA = molecular target: T42, APC4264-AA; assay: two-hybrid library CCmax; settings: mean of both orientations
T42 chain: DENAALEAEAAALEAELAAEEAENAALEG

APC2405-AA = molecular target: T43, APC2405-AA; assay: two-hybrid library CCmax
T43 chain: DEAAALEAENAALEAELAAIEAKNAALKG

APC8910-AA = molecular target: T44, APC8910-AA; assay: two-hybrid library CCmax; settings: mean of both orientations
T44 chain: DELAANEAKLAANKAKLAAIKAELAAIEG

APC3645-AA = molecular target: T45, APC3645-AA; assay: two-hybrid library CCmax; settings: mean of both orientations
T45 chain: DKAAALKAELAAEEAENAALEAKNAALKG

4H348-bA = molecular target: T46, 4H348-bA; assay: two-hybrid library CCNG1
T46 chain: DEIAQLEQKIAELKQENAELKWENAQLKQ

4H319-bA = molecular target: T47, 4H319-bA; assay: two-hybrid library CCNG1
T47 chain: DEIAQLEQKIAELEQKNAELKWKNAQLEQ

4H40-bA = molecular target: T48, 4H40-bA; assay: two-hybrid library CCNG1
T48 chain: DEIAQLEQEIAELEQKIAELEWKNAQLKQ

4H741-bA = molecular target: T49, 4H741-bA; assay: two-hybrid library CCNG1
T49 chain: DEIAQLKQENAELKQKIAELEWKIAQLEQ

4H3277-bA = molecular target: T50, 4H3277-bA; assay: two-hybrid library CCNG1
T50 chain: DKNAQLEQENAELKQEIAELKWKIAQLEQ

4H492-bA = molecular target: T51, 4H492-bA; assay: two-hybrid library CCNG1
T51 chain: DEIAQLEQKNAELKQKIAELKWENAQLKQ

4H3057-bA = molecular target: T52, 4H3057-bA; assay: two-hybrid library CCNG1
T52 chain: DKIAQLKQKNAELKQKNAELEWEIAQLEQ

4H477-bA = molecular target: T53, 4H477-bA; assay: two-hybrid library CCNG1
T53 chain: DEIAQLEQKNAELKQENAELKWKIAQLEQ

DKNQQLKQKIQELKQENQELEWKIQELKQ [O6-bN]
interaction score (O7-bN): -0.589
interaction score (O9-bN): -1.38
interaction score (O8-bN): -0.754

DKIAALKAENAALKAEIAALEAKNAALKG [4H2760-AA]
interaction score (4H2774-AA): -1.29
interaction score (4H2947-AA): 0.202
interaction score (4H2760-AA): 0.876
interaction score (4H3094-AA): 2.17
interaction score (4H3049-AA): 1.62
interaction score (4H446-AA): -1.49
interaction score (4H3619-AA): -1.77
interaction score (4H432-AA): -0.454
interaction score (4H3449-AA): -1.27
interaction score (4H380-AA): -1.48
interaction score (4H2961-AA): -1.97
interaction score (4H3915-AA): -1.44
interaction score (4H2903-AA): -1.32
interaction score (4H3629-AA): -1.14
interaction score (4H63-AA): -1.64
interaction score (4H341-AA): -0.788
interaction score (4H3777-AA): -0.779
interaction score (4H3974-AA): -1.69
interaction score (4H324-AA): -1.09

DKIQQLKQKNQELKQKIQELKWENQELEQ [O7-bN]
interaction score (O7-bN): -1.44
interaction score (O9-bN): -1.53
interaction score (O8-bN): 0.737

DENQELEKEIEELERKNWELKKEIQELER [O5-bH]
interaction score (O8-bH): -0.103
interaction score (O9-bH): -0.548
interaction score (O7-bH): 0.921

DKIQQLKQKNQELKQKNQELEWEIQELEQ [4H3057-bN]
interaction score (4H3057-bN): -1.22
interaction score (4H477-bN): -2.69
interaction score (4H319-bN): -1.2
interaction score (4H40-bN): -1.17
interaction score (4H741-bN): -0.673
interaction score (4H348-bN): -1.34
interaction score (4H3277-bN): -0.965
interaction score (4H492-bN): -1.18

DEAAALEAENAALEAELAAIEAKNAALKG [APC2405-AA]
interaction score (APC9096-AA): -1.39
interaction score (APC4436-AA): -1.04
interaction score (APC9319-AA): -1.81
interaction score (APC8191-AA): 0.786
interaction score (APC7099-AA): -1.31
interaction score (APC5383-AA): -1.52
interaction score (APC6108-AA): -1.24
interaction score (APC4011-AA): -1.01
interaction score (APC4264-AA): -1.55
interaction score (APC2405-AA): -1.47
interaction score (APC8910-AA): -1.63
interaction score (APC3645-AA): -1.29

DKIQELKKKNEELKRKIWELKKENQELER [O7-bH]
interaction score (O8-bH): 1.5
interaction score (O9-bH): 0.59
interaction score (O7-bH): -0.477

DKIAQLKQKNAELKQKNAELEWEIAQLEQ [4H3057-bA]
interaction score (4H348-bA): -1.57
interaction score (4H319-bA): -1.24
interaction score (4H40-bA): -1.17
interaction score (4H741-bA): -1.38
interaction score (4H3277-bA): -1.24
interaction score (4H492-bA): -1.16
interaction score (4H3057-bA): -0.859
interaction score (4H477-bA): -1.12

DKNQELKKKIEELKRENWELEKKIQELKR [O6-bH]
interaction score (O8-bH): 0.914
interaction score (O9-bH): -0.446
interaction score (O7-bH): 0.89

DENQQLEQEIQELEQKNQELKWEIQELEQ [O5-bN]
interaction score (O7-bN): -0.471
interaction score (O9-bN): -1.42
interaction score (O8-bN): -0.445

DELAAIEAEAAALEAKAAALKAEAAALEG [APC232-AA]
interaction score (APC9096-AA): -1.8
interaction score (APC4436-AA): -1.65
interaction score (APC9319-AA): -1.47
interaction score (APC8191-AA): -2.34
interaction score (APC7099-AA): -1.68
interaction score (APC5383-AA): -2.15
interaction score (APC6108-AA): -1.6
interaction score (APC4011-AA): -1.21
interaction score (APC4264-AA): -1.93
interaction score (APC2405-AA; mean of both orientations): -1.6
interaction score (APC8910-AA): -2.1
interaction score (APC3645-AA): -1.5
